Data: paper PMC9405206 (Biomedicines, 2022)

Molecular target: T1, CD47, biotin-conjugated antigen (Homo sapiens, UniProt Q08722, biotin-conjugated)
T1 construct: CD47; Probably the extracellular domain (surmise); also called antigen CD47; source: bought: Sino Biological Inc
Experiment: BLI; ForteBio Octet RED96; streptavidin-coated tips loaded with biotin-conjugated PD-L1 or CD47 (100 nM); antibodies or fusion proteins in solution at 25, 50, 75, 100, 125 and 150 nM; dissociation in PBS; 37 °C; global fit, KD = kd/ka
Settings: both partners purified

Kd: 4.08 pM | koff: 3.99e-07 s⁻¹ | kon: 97900 M⁻¹ s⁻¹
B1: anti-CD47 mAb (B6H12), positive control antibody made in-house (antibody, V domains shown)
VH: EVQLVESGGGLVQPGGSLRLSCAASGFTFSGYGMSWVRQAPGKGLEWVATITSGGTYTYYPDSVKGRFTISRDNAKNSLYLQMNSLRAEDTAVYYCARSLAGNAMDYWGQGTLVTVSS
VL: EIVLTQSPATLSLSPGERATLSCRASQTISDYLHWYQQKPGQAPRLLIKFASQSISGIPARFSGSGSGTDFTLTISSLEPEDFAVYYCQNGHGFPRTFGQGTKVEIK
notes: source: produced in-house from plasmids pUC57/B6H12-Lc and pUC57/B6H12-Hc
